{"source": "patent US7524668", "biological_target": "recombinant soluble human beta-secretase from CHO-K1 cells (Hu_Asp-2LdeltaTM(His)6) (UniProt P56817)", "sequence (P56817 other isoform, or with tags, fused parts or gaps mutant)": "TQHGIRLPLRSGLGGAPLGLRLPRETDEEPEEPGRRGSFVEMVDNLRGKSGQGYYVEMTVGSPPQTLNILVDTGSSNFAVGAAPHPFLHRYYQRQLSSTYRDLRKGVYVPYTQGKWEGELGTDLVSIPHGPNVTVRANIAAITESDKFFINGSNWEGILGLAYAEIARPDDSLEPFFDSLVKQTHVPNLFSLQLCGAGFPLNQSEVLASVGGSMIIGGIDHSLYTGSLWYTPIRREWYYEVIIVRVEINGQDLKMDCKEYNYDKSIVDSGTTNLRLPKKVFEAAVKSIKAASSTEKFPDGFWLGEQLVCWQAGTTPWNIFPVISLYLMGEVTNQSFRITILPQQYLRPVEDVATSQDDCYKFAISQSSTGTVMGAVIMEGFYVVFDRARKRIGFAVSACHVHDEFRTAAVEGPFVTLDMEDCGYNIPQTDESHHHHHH", "data": [{"substance": "HIV-1 protease", "values": [{"measurement": "cleavage of the F39-V40 bond (N-terminal sequence after incubation; pH 5.7, 0.5 M urea, 5% HIV protease, 1 hour at 37 C)", "result": "nearly 100% cleavage of the F^39-V^40 bond occurred"}]}]}
